Experimental data as given in patent US12281147.

Assays:
[1] = biological target: human interleukin 21 receptor (IL-21R) (human) (UniProt Q9HBE5); experiment: AlphaSeq yeast mating assay, pH 6 media
[2] = biological target: human interleukin 21 receptor (IL-21R) (human) (UniProt Q9HBE5); experiment: AlphaSeq yeast mating assay, unbuffered media
[3] = biological target: human interleukin 21 receptor (IL-21R) (human) (UniProt Q9HBE5); experiment: AlphaSeq yeast mating assay, pH 7 media
[4] = biological target: human interleukin 21 receptor (IL-21R) (human) (UniProt Q9HBE5); experiment: AlphaSeq yeast mating assay, pH 5 media
[5] = biological target: wild-type human IL-21R (human) (UniProt Q9HBE5); experiment: AlphaSeq yeast mating assay, unbuffered media
[6] = biological target: wild-type human IL-21R (human) (UniProt Q9HBE5); experiment: AlphaSeq yeast mating assay, pH 7 media
[7] = biological target: wild-type human IL-21R (human) (UniProt Q9HBE5); experiment: AlphaSeq yeast mating assay, pH 5 media
[8] = biological target: human interleukin 21 receptor (IL-21R) (human) (UniProt Q9HBE5); experiment: AlphaSeq yeast mating, pH 7 media
[9] = biological target: human interleukin 21 receptor (IL-21R) (human) (UniProt Q9HBE5); experiment: AlphaSeq yeast mating, pH 5 media
[10] = biological target: human interleukin 21 receptor (IL-21R) (human) (UniProt Q9HBE5); experiment: AlphaSeq yeast mating, pH 6 media
[11] = biological target: human interleukin 21 receptor (IL-21R) (human) (UniProt Q9HBE5); experiment: AlphaSeq yeast mating, unbuffered media
[12] = biological target: mouse IL-21R on T cells of mouse splenocytes (mouse) (UniProt Q9JHX3); experiment: cell-based or functional assay
[13] = biological target: mouse IL-21R, His-tagged (BLI antigen) (mouse) (UniProt Q9JHX3); experiment: BLI
[14] = biological target: recombinant human IL-21R His tag (Acro Biosystems) (human) (UniProt Q9HBE5); experiment: BLI
[15] = biological target: human IL-21R on T cells of primary human PBMCs (human) (UniProt Q9HBE5); experiment: cell-based or functional assay

Substance “IL-21_R34T (from UniProt Q9HBE4 32-152) (ligand)” has a Kd [1] of 26 nM, a Kd [2] of 350 nM and a Kd [3] of 140 nM.

With “IL-21_R94S (from UniProt Q9HBE4 32-152) (ligand)” the Kd [1] was 27 nM, the Kd [3] was 35 nM and the Kd [4] was 140 nM.

For “IL-21_R94T (from UniProt Q9HBE4 32-152) (ligand)”, the Kd [1] was 27 nM, the Kd [3] was 80 nM and the Kd [4] was 210 nM.

“IL-21_R114F (from UniProt Q9HBE4 32-152) (ligand)” showed a Kd [1] of 48 nM, a Kd [2] of 450 nM and a Kd [3] of 57 nM. The Kd [4] was 140 nM.

In the case of “IL-21_R115I (from UniProt Q9HBE4 32-152) (ligand)”, the Kd [1] is reported as 35 nM, the Kd [2] is reported as 260 nM and the Kd [3] is reported as 50 nM. The Kd [4] was 140 nM.

“IL-21_R115P (from UniProt Q9HBE4 32-152) (ligand)” gave a Kd [1] of 15 nM, a Kd [2] of 55 nM and a Kd [3] of 57 nM.

“IL-21_R115Q (from UniProt Q9HBE4 32-152) (ligand)” gave a Kd [1] of 11 nM and a Kd [3] of 56 nM.

“IL-21_S74A (from UniProt Q9HBE4 32-152) (ligand)” was tested, and the Kd [5] was 4400 nM, the Kd [6] was 160 nM and the Kd [7] was 140 nM.

“IL-21_S77M (from UniProt Q9HBE4 32-152) (ligand)” showed a Kd [1] of 15 nM, a Kd [3] of 60 nM and a Kd [4] of 40 nM.

“IL-21_S86I (from UniProt Q9HBE4 32-152) (ligand)” showed a Kd [6] of 52 nM and a Kd [7] of 110 nM.

In the case of “IL-21_S142D (from UniProt Q9HBE4 32-152) (ligand)”, the Kd [2] is reported as 450 nM.

“IL-21_W73A (from UniProt Q9HBE4 32-152) (ligand)” showed a Kd [8] of 170 nM, a Kd [9] of 3500 nM and a Kd [10] of 360 nM. It also gave a Kd [11] of 26000 nM.

With “IL-21_Y52Q (from UniProt Q9HBE4 32-152) (ligand)” the Kd [8] was 89 nM, the Kd [9] was 55000 nM and the Kd [10] was 390 nM. The Kd [11] was 63000 nM.

For “IL-21_human_D33P Fc fusion protein (from UniProt Q9HBE4 30-162)”, the Mouse T cell EC50 (pM), pSTAT3 phosflow [12] was 1800 pM and the Kd [13] was 19.8 nM.

“IL-21_human_D33T Fc fusion protein (from UniProt Q9HBE4 30-162)” gave a Kd [13] of 37.4 nM and a Kd [14] of 14.8 nM.

“IL-21_human_E72L Fc fusion protein (from UniProt Q9HBE4 30-162)” showed a Kd [13] of 12.3 nM.

For “IL-21_human_I37G Fc fusion protein (from UniProt Q9HBE4 30-162)”, the Kd [13] was 159 nM.

“IL-21_human_I37R Fc fusion protein (from UniProt Q9HBE4 30-162)” gave a Kd [13] of 35.1 nM.

For “IL-21_human_I37V Fc fusion protein (from UniProt Q9HBE4 30-162)”, the Kd [13] was 5.27 nM and the Kd [14] was 3.02 nM.

For “IL-21_human_I43M Fc fusion protein (from UniProt Q9HBE4 30-162)”, the Kd [13] was 9.04 nM and the Kd [14] was 7.02 nM.

Work on “IL-21_human_I45A Fc fusion protein (from UniProt Q9HBE4 30-162)” yielded a Kd [13] of 12.6 nM and a Kd [14] of 1.94 nM.

Substance “IL-21_human_I45H Fc fusion protein (from UniProt Q9HBE4 30-162)” has a Kd [13] of 124 nM and a Kd [14] of 29 nM.

With “IL-21_human_I95H Fc fusion protein (from UniProt Q9HBE4 30-162)” the Kd [13] was 849 nM and the Kd [14] was 16 nM.

“IL-21_human_I148S Fc fusion protein (from UniProt Q9HBE4 30-162)” gave a Kd [13] of 6.46 nM and a Kd [14] of 2.45 nM.

Substance “IL-21_human_K106S Fc fusion protein (from UniProt Q9HBE4 30-162)” has a Kd [13] of 24 nM and a Kd [14] of 5.78 nM.

With “IL-21_human_P108L Fc fusion protein (from UniProt Q9HBE4 30-162)” the Mouse T cell EC50 (pM), pSTAT3 phosflow [12] was 71000 pM, the Kd [13] was 11.8 nM and the Kd [14] was 3.21 nM.

“IL-21_human_R38M Fc fusion protein (from UniProt Q9HBE4 30-162)” showed a Kd [13] of 189 nM and a Kd [14] of 87.9 nM.

“IL-21_human_R38Q Fc fusion protein (from UniProt Q9HBE4 30-162)” showed a Kd [13] of 246 nM and a Kd [14] of 89.6 nM.

“IL-21_human_R105K Fc fusion protein (from UniProt Q9HBE4 30-162)” was tested, and the Kd [13] was 41.3 nM and the Kd [14] was 16.7 nM.

Substance “IL-21_human_S74H Fc fusion protein (from UniProt Q9HBE4 30-162)” has a Human T cell EC50 (pM), pSTAT3 phosflow [15] of 3.6 pM, a Mouse T cell EC50 (pM), pSTAT3 phosflow [12] of 1900 pM and a Kd [14] of 12.3 nM.

“IL-21_human_W73L Fc fusion protein (from UniProt Q9HBE4 30-162)” showed a Mouse T cell EC50 (pM), pSTAT3 phosflow [12] of 6900 pM, a Kd [13] of 19.9 nM and a Kd [14] of 22.8 nM.
